From patent US20200270339A1 (CEPHALON, published 2020)
Numbering of substitutions follows the chain as printed.

B1: Antibody 63 (antibody, V domains shown)
VH: QVQLQESGPGLVKPSGTLSLTCAVSGGSISSSNWWSWVRQPPGKGLEWIGEIYHYGYTNYNPSLKSRVTISVDKSKNQFSLKLSSVTAADTAVYYCAREGIGWPSFDYWGQGTLVTVSS
VL: SSELTQDPAASVALGQTVRITCQGDTLRNYYASWYQQKPGQAPILVIYGKNNRPSGIPDRFSGSSSGNTASLTITGAQAEDEADYYCNSRDSSGKNLVFGGGTKLTVL
B2: Antibody 71 (antibody, V domains shown)
VH: B1 VH
VL: B1 VL with N29S, S92E
B3: Antibody 81 (antibody, V domains shown)
VH: B1 VH with S84I
VL: B1 VL with N29S, S92F
B4: Antibody 79 (antibody, V domains shown)
VH: B1 VH with S84I
VL: B1 VL with N29S, S92L
B5: Antibody 78 (antibody, V domains shown)
VH: B1 VH with S84I
VL: B1 VL with N29S, D91E
B6: Antibody 66 (antibody, V domains shown)
VH: B1 VH
VL: SSELTQDPAASVALGQTVRITCQGDTLRNYYASWYQQKPGQAPILVIYGKNNRPSGIPDRFSGSSSGNTASLTITGAQAEDEADYYCNSRDLSGKNLVFGGGTKLTVLG
B7: Antibody 67 (antibody, V domains shown)
VH: B1 VH
VL: B1 VL with S92E
B8: Antibody 74 (antibody, V domains shown)
VH: B1 VH with S84I
VL: B1 VL with D91E
B9: Antibody 80 (antibody, V domains shown)
VH: B1 VH with S84I
VL: B1 VL with N29S, S92E
B10: Antibody 68 (antibody, V domains shown)
VH: B1 VH
VL: B6 VL with L92F
B11: Antibody 72 (antibody, V domains shown)
VH: B1 VH
VL: B1 VL with N29S, S92F
B12: Antibody 77 (antibody, V domains shown)
VH: B1 VH with S84I
VL: B1 VL with S92F
B13: Antibody 76 (antibody, V domains shown)
VH: B1 VH with S84I
VL: B1 VL with S92E
B14: Antibody 69 (antibody, V domains shown)
VH: B1 VH
VL: B1 VL with N29S, D91E
B15: Antibody 73 (antibody, V domains shown)
VH: B1 VH with S84I
VL: B1 VL with N29S
B16: Antibody 65 (antibody, V domains shown)
VH: B1 VH
VL: B1 VL with D91E
B17: Antibody 64 (antibody, V domains shown)
VH: B1 VH
VL: B6 VL with N29S, L92S
B18: Antibody 75 (antibody, V domains shown)
VH: B1 VH with S84I
VL: B1 VL with S92L

These binders were tested against human IL-15 complexed with the IL-15 Receptor-alpha (human, UniProt P40933 49-162) (assay: cell-based or functional assay).
human IL-15 complexed with the IL-15 Receptor-alpha, sequence (P40933 49-162 limits assumed, chain 1 of 2): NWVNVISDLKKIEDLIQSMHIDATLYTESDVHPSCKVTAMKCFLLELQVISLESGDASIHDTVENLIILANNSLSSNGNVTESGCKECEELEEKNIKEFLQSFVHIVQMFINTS
human IL-15 complexed with the IL-15 Receptor-alpha, sequence (chain, as listed by the source limits assumed, chain 2 of 2): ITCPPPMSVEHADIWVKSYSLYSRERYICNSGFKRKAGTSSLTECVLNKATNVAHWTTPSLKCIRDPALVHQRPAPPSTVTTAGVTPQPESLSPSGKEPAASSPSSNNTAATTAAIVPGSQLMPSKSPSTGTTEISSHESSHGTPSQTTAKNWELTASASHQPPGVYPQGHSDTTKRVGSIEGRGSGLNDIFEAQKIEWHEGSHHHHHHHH

IC 50 (NK-92) in pM [pM]	Binder
4.21	B1
26.4	B2
17.3	B3
12.4	B4
168	B5
6.04	B6
7.69	B7
33.9	B8
22.8	B9
5.34	B10
20.9	B11
5.69	B12
7.69	B13
162	B14
11.8	B15
42.5	B16
13.6	B17
3.14	B18
